Assays:
[1] = target: CD3ε (CD3 epsilon) recombinant protein (UniProt P07766); assay: SPR kinetics, CD3ε as immobilised ligand; comparator panel at the right
[2] = target: human leukocyte antigen-G (HLA-G) recombinant protein (human) (UniProt P17693); assay: SPR kinetics, HLA-G as immobilised ligand; comparator panel at the right

Row | Kd [1] [nM] | Kd [2] [nM] | Substance
1 | 7.68 |  | Muromonab-CD3 (antibody)
2 |  | 8.69 | Anti-human HLA-G Antibody (87G)

Reference: US20220306748A1
